B1: IQUB (parent)
chain: KIREKEEWIKLDYHRRHNPKTNED

Variants of: B1
Assay: protein stability index of a GFP-peptide fusion (GPS, HEK-293T) (PSI 1-6); higher = more stable
Conditions: c terminus: a fixed tail appended
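Also: lentivirally expressed fusions sorted by FACS into six bins by GFP to DsRed ratio, PSI derived from sequencing read proportions per bin multiplied by bin number.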

Going from KIREKCEWIKLDYHRRHNPKTNED [E6C] to KIREKGEWIKLDYHRRHNPKTNED [E6G], the protein stability index falls from 4.35 to 3.96.

First: KIREKNEWIKLDYHRRHNPKTNED [E6N]
Second: KIREKREWIKLDYHRRHNPKTNED [E6R]
The protein stability index of the first is lower: 4.52 for the first, 4.66 for the second.

First: KIREKPEWIKLDYHRRHNPKTNED [E6P]
Second: KIREKFEWIKLDYHRRHNPKTNED [E6F]
The protein stability index of the first is higher: 3.58 for the first, 3.56 for the second.

Going from KIREKMEWIKLDYHRRHNPKTNED [E6M] to KIREKKEWIKLDYHRRHNPKTNED [E6K], the protein stability index rises from 3.69 to 3.98.

Compared with KIREKVEWIKLDYHRRHNPKTNED [E6V], KIREKLEWIKLDYHRRHNPKTNED [E6L] is lower in protein stability index: 3.63 for the first, 2.7 for the second.

Going from KIREKTEWIKLDYHRRHNPKTNED [E6T] to KIREKDEWIKLDYHRRHNPKTNED [E6D], the protein stability index falls from 4.41 to 4.31.

First: KIREKHEWIKLDYHRRHNPKTNED [E6H]
Second: KIREKAEWIKLDYHRRHNPKTNED [E6A]
The protein stability index of the first is higher: 3.98 for the first, 3.32 for the second.

First: KIREKWEWIKLDYHRRHNPKTNED [E6W]
Second: KIREKSEWIKLDYHRRHNPKTNED [E6S]
The protein stability index of the first is lower: 2.61 for the first, 4.03 for the second.

First: KIREKYEWIKLDYHRRHNPKTNED [E6Y]
Second: KIREKQEWIKLDYHRRHNPKTNED [E6Q]
The protein stability index of the first is lower: 2.88 for the first, 4.47 for the second.

Going from KIRDKEEWIKLDYHRRHNPKTNED [E4D] to KIRKKEEWIKLDYHRRHNPKTNED [E4K], the protein stability index falls from 4.48 to 3.86.

Going from KIRLKEEWIKLDYHRRHNPKTNED [E4L] to KIRYKEEWIKLDYHRRHNPKTNED [E4Y], the protein stability index rises from 3.81 to 4.03.

Compared with KIRCKEEWIKLDYHRRHNPKTNED [E4C], KIRAKEEWIKLDYHRRHNPKTNED [E4A] is higher in protein stability index: 3.71 for the first, 4.38 for the second.

First: KIRGKEEWIKLDYHRRHNPKTNED [E4G]
Second: KIRFKEEWIKLDYHRRHNPKTNED [E4F]
The protein stability index of the first is higher: 3.85 for the first, 3.84 for the second.

Compared with KIRVKEEWIKLDYHRRHNPKTNED [E4V], KIRMKEEWIKLDYHRRHNPKTNED [E4M] is higher in protein stability index: 3.32 for the first, 4.06 for the second.

First: KIRRKEEWIKLDYHRRHNPKTNED [E4R]
Second: KIRPKEEWIKLDYHRRHNPKTNED [E4P]
The protein stability index of the first is lower: 3.99 for the first, 4.02 for the second.

First: KIRHKEEWIKLDYHRRHNPKTNED [E4H]
Second: KIRTKEEWIKLDYHRRHNPKTNED [E4T]
The protein stability index of the first is higher: 4.32 for the first, 4 for the second.

Compared with KIRNKEEWIKLDYHRRHNPKTNED [E4N], KIRIKEEWIKLDYHRRHNPKTNED [E4I] is lower in protein stability index: 4.67 for the first, 4 for the second.

Going from KIRSKEEWIKLDYHRRHNPKTNED [E4S] to KIRWKEEWIKLDYHRRHNPKTNED [E4W], the protein stability index falls from 3.95 to 3.75.

First: KIRQKEEWIKLDYHRRHNPKTNED [E4Q]
Second: KIREKENWIKLDYHRRHNPKTNED [E7N]
The protein stability index of the first is lower: 3.82 for the first, 4.45 for the second.

Going from KIREKEHWIKLDYHRRHNPKTNED [E7H] to KIREKECWIKLDYHRRHNPKTNED [E7C], the protein stability index rises from 4.34 to 4.61.

Compared with KIREKEKWIKLDYHRRHNPKTNED [E7K], KIREKEDWIKLDYHRRHNPKTNED [E7D] is higher in protein stability index: 4.03 for the first, 4.48 for the second.

Going from KIREKELWIKLDYHRRHNPKTNED [E7L] to KIREKEYWIKLDYHRRHNPKTNED [E7Y], the protein stability index rises from 2.68 to 3.31.

Compared with KIREKEAWIKLDYHRRHNPKTNED [E7A], KIREKERWIKLDYHRRHNPKTNED [E7R] is lower in protein stability index: 4.74 for the first, 3.51 for the second.

Going from KIREKEIWIKLDYHRRHNPKTNED [E7I] to KIREKETWIKLDYHRRHNPKTNED [E7T], the protein stability index rises from 3.36 to 4.37.

Going from KIREKEGWIKLDYHRRHNPKTNED [E7G] to KIREKEVWIKLDYHRRHNPKTNED [E7V], the protein stability index rises from 3.8 to 3.99.

First: KIREKEWWIKLDYHRRHNPKTNED [E7W]
Second: KIREKEFWIKLDYHRRHNPKTNED [E7F]
The protein stability index of the first is higher: 3.46 for the first, 3.34 for the second.

Compared with KIREKEQWIKLDYHRRHNPKTNED [E7Q], KIREKESWIKLDYHRRHNPKTNED [E7S] is higher in protein stability index: 4.19 for the first, 4.46 for the second.

Going from KIREKEMWIKLDYHRRHNPKTNED [E7M] to KIREKEPWIKLDYHRRHNPKTNED [E7P], the protein stability index rises from 3.27 to 3.6.

First: KIREKEEWNKLDYHRRHNPKTNED [I9N]
Second: KIREKEEWCKLDYHRRHNPKTNED [I9C]
The protein stability index of the first is higher: 5.07 for the first, 4.12 for the second.

First: KIREKEEWKKLDYHRRHNPKTNED [I9K]
Second: KIREKEEWTKLDYHRRHNPKTNED [I9T]
The protein stability index of the first is higher: 5.13 for the first, 5.1 for the second.

First: KIREKEEWAKLDYHRRHNPKTNED [I9A]
Second: KIREKEEWYKLDYHRRHNPKTNED [I9Y]
The protein stability index of the first is higher: 5.24 for the first, 4.73 for the second.

Going from KIREKEEWGKLDYHRRHNPKTNED [I9G] to KIREKEEWHKLDYHRRHNPKTNED [I9H], the protein stability index falls from 5.35 to 4.45.

Going from KIREKEEWLKLDYHRRHNPKTNED [I9L] to KIREKEEWEKLDYHRRHNPKTNED [I9E], the protein stability index rises from 4.66 to 5.25.

First: KIREKEEWVKLDYHRRHNPKTNED [I9V]
Second: KIREKEEWSKLDYHRRHNPKTNED [I9S]
The protein stability index of the first is higher: 4.86 for the first, 4.62 for the second.

Going from KIREKEEWMKLDYHRRHNPKTNED [I9M] to KIREKEEWFKLDYHRRHNPKTNED [I9F], the protein stability index falls from 4.75 to 3.96.

Going from KIREKEEWPKLDYHRRHNPKTNED [I9P] to KIREKEEWQKLDYHRRHNPKTNED [I9Q], the protein stability index rises from 4.94 to 5.24.

Going from KIREKEEWDKLDYHRRHNPKTNED [I9D] to KIREKEEWIWLDYHRRHNPKTNED [K10W], the protein stability index falls from 5.22 to 3.17.

Compared with KIREKEEWICLDYHRRHNPKTNED [K10C], KIREKEEWIHLDYHRRHNPKTNED [K10H] is higher in protein stability index: 4.15 for the first, 4.56 for the second.

First: KIREKEEWIVLDYHRRHNPKTNED [K10V]
Second: KIREKEEWIQLDYHRRHNPKTNED [K10Q]
The protein stability index of the first is lower: 4.2 for the first, 4.74 for the second.

Compared with KIREKEEWIYLDYHRRHNPKTNED [K10Y], KIREKEEWINLDYHRRHNPKTNED [K10N] is higher in protein stability index: 4.31 for the first, 4.48 for the second.

First: KIREKEEWIDLDYHRRHNPKTNED [K10D]
Second: KIREKEEWIGLDYHRRHNPKTNED [K10G]
The protein stability index of the first is higher: 4.99 for the first, 4.9 for the second.

Going from KIREKEEWIRLDYHRRHNPKTNED [K10R] to KIREKEEWIILDYHRRHNPKTNED [K10I], the protein stability index falls from 4.92 to 4.16.

Compared with KIREKEEWISLDYHRRHNPKTNED [K10S], KIREKEEWITLDYHRRHNPKTNED [K10T] is higher in protein stability index: 4.68 for the first, 4.97 for the second.

Compared with KIREKEEWIALDYHRRHNPKTNED [K10A], KIREKEEWIPLDYHRRHNPKTNED [K10P] is higher in protein stability index: 4.65 for the first, 5.26 for the second.

First: KIREKEEWILLDYHRRHNPKTNED [K10L]
Second: KIREKEEWIMLDYHRRHNPKTNED [K10M]
The protein stability index of the first is lower: 4.04 for the first, 4.67 for the second.

Going from KIREKEEWIFLDYHRRHNPKTNED [K10F] to KIREKEEWIELDYHRRHNPKTNED [K10E], the protein stability index rises from 4.68 to 5.3.

Compared with KIREKEEWIKADYHRRHNPKTNED [L11A], KIREYEEWIKLDYHRRHNPKTNED [K5Y] is lower in protein stability index: 4.77 for the first, 3.92 for the second.

Source: the supplement of paper PMC10567573
